Results taken from publication PMC4670574 (2016).
Square brackets hold non-standard residues; d marks the D form. Ends that are not written are not given here. pT = C[C@@H](OP(=O)(O)O)[C@H](N)C(=O)O

Target: T1, pCdc25C phosphopeptide (Homo sapiens)
T1 chain: EQPL[pT]PVTDL
Assay: ITC

- Kd: > 1000 µM
B1: Pin1 isolated PPIase domain PPIase domain (protein)
chain: PARVRCSHLLVKHSQSRRPSSWRQEKITRTKEEALELINGYIQKIKSGEEDFESLASQFSDCSSAKARGDLGAFSRGQMQKPFEDASFALRTGEMSGPVFTDSGIHIILRTE
